Source: paper doi:10.1101/2023.09.20.558697
Where two headings read alike, the source gives them in different places.

Key:
Assay in all cases: EMSA
RokL6-His6 [1] = biological target: T1, RokL6-His6 (Streptomyces coelicolor A3(2) M145, UniProt Q9L112 1-399)
T1 sequence: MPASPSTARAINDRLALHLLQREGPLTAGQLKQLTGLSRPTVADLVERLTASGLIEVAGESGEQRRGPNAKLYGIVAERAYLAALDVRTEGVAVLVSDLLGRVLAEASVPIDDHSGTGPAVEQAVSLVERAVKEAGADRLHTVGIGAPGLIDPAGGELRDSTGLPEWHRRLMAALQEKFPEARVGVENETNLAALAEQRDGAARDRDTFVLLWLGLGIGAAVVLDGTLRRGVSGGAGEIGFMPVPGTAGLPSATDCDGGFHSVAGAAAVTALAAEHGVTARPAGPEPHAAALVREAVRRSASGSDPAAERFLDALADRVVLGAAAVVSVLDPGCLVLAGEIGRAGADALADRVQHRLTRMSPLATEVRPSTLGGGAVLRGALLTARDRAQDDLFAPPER

RokL6-His6 [2] = biological target: T1, RokL6-His6; remark: listed apart in the source
RokL6-His6 [3] = biological target: T1, RokL6-His6; remark: listed apart in the source

B1: RokL6-M3 (dsDNA)
DNA 1: CGCACCGGTAATCCACTATCGAATTCGCAGGCTCCGGATCCGTTTACGCCGCGGATTGAC
DNA 2: GTCAATCCGCGGCGTAAACGGATCCGGAGCCTGCGAATTCGATAGTGGATTACCGGTGCG
binding result (RokL6-His6 [1]): no binding

B2: hrdB-P (dsDNA)
DNA 1: CGGCCCGCCCGCACCGTCGGCCCATTCCCAAGCCGGTGGTCGGCCCCTGTCCGCCGTGGA
DNA 2: TCCACGGCGGACAGGGGCCGACCACCGGCTTGGGAATGGGCCGACGGTGCGGGCGGGCCG
binding result (RokL6-His6 [2]): no binding

B3: RokL6-BS (dsDNA)
DNA 1: CGCACCGGTAATCCACTATCTATCAGGCAGGCTCCCTGATAGTTTACGCCGCGGATTGAC
DNA 2: GTCAATCCGCGGCGTAAACTATCAGGGAGCCTGCCTGATAGATAGTGGATTACCGGTGCG
binding result (RokL6-His6 [3]): binds
